{"source": "paper PMC7723414", "about": "“Cryo-EM structure of the calcium release-activated calcium channel Orai in an open conformation” (eLife, 2020)", "binders": {"B1": {"name": "Orai_(H206A) (Drosophila melanogaster Orai, amino acids 133-341, with C224S, C283T and H206A) (domain or fragment, UniProt Q9U6B8 133-341, looked up)", "chain": "MSQSGEDLHSPTYLSWRKLQLSRAKLKASSKTSALLSGFAMVAMVEVQLDHDTNVPPGMLIAFAICTTLLVAVAMLALMISTCILPNIETVSNLHSISLVHESPHERLHWYIETAWAFSTLLGLILFLLEIAILCWVKFYDLSPPAAWSATVVLIPVMIIFMAFAIHFYRSLVSHKYEVTVSGIRELEMLKEQMEQDHLEHHNNIRNNG", "notes": "construct identical to the one of Hou et al., 2018; Hexameric channel; The atomic model holds amino acids 156-305 except 217-239; also called H206A Orai; purified Orai_(H206A)"}, "B2": {"name": "19B5 Fab antibody fragment (Fab, V domains shown)", "VH": "EVQLVESGGGLVQPKGSLKLSCAASGFTFNTYAMHWVRQAPGKGLEWVARIRTKSNNYATYYADSVKDRFTISRDDSQSMLYLQMNNLKTEDTAMYYCVRQKYGNYFDYWGQGTTLTVSS", "VL": "DVVMTQSQKFMSTSVGDRVSVTCKASQNVGINVAWYQQKPGQSPKALINSASYRNSGVPDRFTGGGSGTDFTLTINNVQSEDLAEYFCQQCNSYPLTFGAGTKLELR", "notes": "the deposited model PDB 7KR5 holds the variable domains; mouse IgG1; Fab of the mouse monoclonal IgG1 19B5; source: IgG from mouse hybridoma cells, purified by ion exchange, cleaved with papain; Fab purified (Mono S, SEC)"}, "B3": {"name": "monoclonal antibody 19B5 (mouse IgG1) (antibody, V domains shown)", "VH": "EVQLVESGGGLVQPKGSLKLSCAASGFTFNTYAMHWVRQAPGKGLEWVARIRTKSNNYATYYADSVKDRFTISRDDSQSMLYLQMNNLKTEDTAMYYCVRQKYGNYFDYWGQGTTLTVSS", "VL": "DVVMTQSQKFMSTSVGDRVSVTCKASQNVGINVAWYQQKPGQSPKALINSASYRNSGVPDRFTGGGSGTDFTLTINNVQSEDLAEYFCQQCNSYPLTFGAGTKLELR", "notes": "as the heavy chain of m2 (variable domain in PDB 7KR5), whole mouse IgG1 heavy chain; as the light chain of m2 (variable domain in PDB 7KR5); IgG1; also called 19B5 antibody; Drosophila Orai-19B5 (mouse monoclonal); source: mouse hybridoma cells, purified by ion exchange chromatography"}}, "key": {"[1]": {"target": "the molecule itself", "experiment": "cryo-EM structure; Orai_(H206A) in amphipol A8-35 combined with 19B5 Fab at a molar ratio of 0.78:1 (Fab to Orai monomer), 5 mM CaCl2, 150 mM NaCl, 20 mM Tris pH 8.5, on ice 30 min; single particle analysis"}, "[2]": {"target": "T1, Orai_(H206A) (Drosophila melanogaster Orai, amino acids 133-341, with C224S, C283T and H206A) (Drosophila melanogaster, UniProt Q9U6B8, C224S | C283T | H206A)", "T1 construct": "construct identical to the one of Hou et al., 2018; Hexameric channel; The atomic model holds amino acids 156-305 except 217-239; also called H206A Orai; purified Orai_(H206A)", "experiment": "cryo-EM structure; Orai_(H206A) in amphipol A8-35 combined with 19B5 Fab at a molar ratio of 0.78:1 (Fab to Orai monomer), 5 mM CaCl2, 150 mM NaCl, 20 mM Tris pH 8.5, on ice 30 min; single particle analysis", "details": "both partners purified"}, "[3]": {"target": "T2, wild-type Orai (amino acids 120-351) with N-terminal mCherry tag (Drosophila melanogaster, UniProt Q9U6B8)", "T2 construct": "Orai, Drosophila melanogaster, amino acids 120-351; Construct reported in Hou et al., 2018; vector modified from pNGFP-EU; also called Orai-mCherry; source: HEK293, transfected, on intact cells; not shown: mCherry, N-terminal, kept", "T2 sequence (Q9U6B8 120-351)": "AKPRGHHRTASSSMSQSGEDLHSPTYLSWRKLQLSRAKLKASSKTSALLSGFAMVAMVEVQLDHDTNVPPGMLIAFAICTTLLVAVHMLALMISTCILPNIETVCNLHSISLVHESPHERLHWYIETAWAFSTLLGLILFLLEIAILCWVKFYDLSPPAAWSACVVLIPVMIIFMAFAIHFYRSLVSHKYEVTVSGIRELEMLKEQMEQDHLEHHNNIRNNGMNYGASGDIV", "experiment": "live-cell ELISA; intact HEK293 cells transfected with mCherry-tagged Orai constructs or vector; purified 19B5 IgG1 1 uM, 20 min, room temperature; HRP-conjugated secondary antibody, TMB, absorbance at 450 nm", "details": "one partner purified"}}, "data": [{"binder": "B1", "values": [{"measurement": "stoichiometry N", "setting": "[1]", "result": 6, "unit": "subunits per channel"}]}, {"binder": "B2", "values": [{"measurement": "stoichiometry N", "setting": "[2]", "result": "≤ 3", "unit": "Fabs per channel"}]}, {"binder": "B3", "values": [{"measurement": "binding result", "setting": "[3]", "result": "binds"}]}]}
